B1: C10orf62 (parent)
chain: TSECPSDKDKSPESHKAKNESWIK
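Note: lentivirally expressed fusions sorted by FACS into six bins by GFP to DsRed ratio, PSI derived from sequencing read proportions per bin multiplied by bin number.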

The variants in the series derive from B1. The experiment in a line: protein stability index of a GFP-peptide fusion (GPS, HEK-293T) (PSI 1-6); higher = more stable. The conditions noted are these: c terminus: a fixed tail appended.
Turning to TSECPSDKDKSPDSHKAKNESWIK [E13D], the protein stability index turned out to be 2.98. The same measure for TSECPSDKDKSPRSHKAKNESWIK [E13R]: 2.82. The same measure for TSECPSDKDKSPTSHKAKNESWIK [E13T]: 2.65. For TSECPSDKDKSPNSHKAKNESWIK [E13N] the value was 3.43.

TSECPSDKDKSPLSHKAKNESWIK [E13L]: the protein stability index was 2.21. The same measure for TSECPSDKDKSPMSHKAKNESWIK [E13M]: 2.65; for TSECPSDKDKSPPSHKAKNESWIK [E13P]: 2.63; for TSECPSDKDKSPHSHKAKNESWIK [E13H]: 3.02. The same measure for TSECPSDKDKSPKSHKAKNESWIK [E13K]: 3.08.

For TSECPSDKDKSPWSHKAKNESWIK [E13W], the protein stability index was found to be 2.17. The same measure for TSECPSDKDKSPGSHKAKNESWIK [E13G]: 2.89; for TSECPSDKDKSPQSHKAKNESWIK [E13Q]: 3.34; for TSECPSDKDKSPISHKAKNESWIK [E13I]: 2.44. For TSECPSDKDKSPCSHKAKNESWIK [E13C] the value was 3.35. For TSECPSDKDKSPSSHKAKNESWIK [E13S] the value was 3.2; for TSECPSDKDKSPASHKAKNESWIK [E13A], 2.77. As to TSECPSDKDKSPYSHKAKNESWIK [E13Y], the protein stability index is 2.98. The same measure for TSECPSDKDKSPFSHKAKNESWIK [E13F]: 2.94; for TSECPSDKDKSPVSHKAKNESWIK [E13V]: 2.77; for TSECPSKKDKSPESHKAKNESWIK [D7K]: 3.55. For TSECPSAKDKSPESHKAKNESWIK [D7A] the value was 2.6. Consider TSECPSVKDKSPESHKAKNESWIK [D7V], for which the protein stability index came to 3.52.

Consider TSECPSNKDKSPESHKAKNESWIK [D7N], for which the protein stability index was found to be 3.11.

Take TSECPSTKDKSPESHKAKNESWIK [D7T]: the protein stability index stood at 3.14.

With TSECPSRKDKSPESHKAKNESWIK [D7R], the protein stability index came out at 2.35. The same measure for TSECPSWKDKSPESHKAKNESWIK [D7W]: 2.58; for TSECPSQKDKSPESHKAKNESWIK [D7Q]: 3.2; for TSECPSEKDKSPESHKAKNESWIK [D7E]: 2.57.

As to TSECPSYKDKSPESHKAKNESWIK [D7Y], the protein stability index worked out at 2.85.

Take TSECPSHKDKSPESHKAKNESWIK [D7H]: the protein stability index worked out at 2.88. The same measure for TSECPSGKDKSPESHKAKNESWIK [D7G]: 3.38; for TSECPSFKDKSPESHKAKNESWIK [D7F]: 2.84.

On to TSECPSPKDKSPESHKAKNESWIK [D7P], for which the protein stability index came to 3.6. For TSECPSMKDKSPESHKAKNESWIK [D7M], the protein stability index is 2.82.

Turning to TSECPSLKDKSPESHKAKNESWIK [D7L], the protein stability index was 2.81. For TSECPSIKDKSPESHKAKNESWIK [D7I] the value was 2.3; for TSECPSCKDKSPESHKAKNESWIK [D7C], 3.2; for TSECPSDKKKSPESHKAKNESWIK [D9K], 2.25.

Regarding TSECPSDKTKSPESHKAKNESWIK [D9T], the protein stability index was 3.34.

TSECPSDKMKSPESHKAKNESWIK [D9M]: the protein stability index stood at 3.28. The same measure for TSECPSDKFKSPESHKAKNESWIK [D9F]: 2.16. As for TSECPSDKSKSPESHKAKNESWIK [D9S], the protein stability index worked out at 3.11.

In the case of TSECPSDKVKSPESHKAKNESWIK [D9V], the protein stability index was 2.9. For TSECPSDKLKSPESHKAKNESWIK [D9L] the value was 2.54. For TSECPSDKRKSPESHKAKNESWIK [D9R] the value was 2.62; for TSECPSDKYKSPESHKAKNESWIK [D9Y], 2.64; for TSECPSDKQKSPESHKAKNESWIK [D9Q], 3.27. Take TSECPSDKHKSPESHKAKNESWIK [D9H]: the protein stability index turned out to be 3.18. For the variant TSECPSDKWKSPESHKAKNESWIK [D9W], the protein stability index is 2.98.

For the variant TSECPSDKPKSPESHKAKNESWIK [D9P], the protein stability index was found to be 3.39. The same measure for TSECPSDKCKSPESHKAKNESWIK [D9C]: 2.46; for TSECPSDKAKSPESHKAKNESWIK [D9A]: 2.68; for TSECPSDKNKSPESHKAKNESWIK [D9N]: 2.94. The same measure for TSECPSDKGKSPESHKAKNESWIK [D9G]: 3.42; for TSECPSDKEKSPESHKAKNESWIK [D9E]: 3; for TSECPSDKDKSPESHPAKNESWIK [K16P]: 4.62.

Consider TSECPSDKDKSPESHEAKNESWIK [K16E], for which the protein stability index came out at 4.94.

For TSECPSDKDKSPESHIAKNESWIK [K16I], the protein stability index was found to be 3.92. Regarding TSECPSDKDKSPESHDAKNESWIK [K16D], the protein stability index turned out to be 4.2. The same measure for TSECPSDKDKSPESHNAKNESWIK [K16N]: 3.67.

Turning to TSECPSDKDKSPESHMAKNESWIK [K16M], the protein stability index was found to be 3.85. With TSECPSDKDKSPESHFAKNESWIK [K16F], the protein stability index came to 3.85.

Regarding TSECPSDKDKSPESHGAKNESWIK [K16G], the protein stability index is 3.58. Take TSECPSDKDKSPESHLAKNESWIK [K16L]: the protein stability index was found to be 3.37. The same measure for TSECPSDKDKSPESHCAKNESWIK [K16C]: 3.75; for TSECPSDKDKSPESHAAKNESWIK [K16A]: 4.49; for TSECPSDKDKSPESHHAKNESWIK [K16H]: 3.8. The same measure for TSECPSDKDESPESHKAKNESWIK [K10E]: 4. The same measure for TSECPSDKDHSPESHKAKNESWIK [K10H]: 3.53; for TSECPSDKDFSPESHKAKNESWIK [K10F]: 3.72; for TSECPSDKDWSPESHKAKNESWIK [K10W]: 2.28. For the variant TSECPSDKDPSPESHKAKNESWIK [K10P], the protein stability index is 3.3. For TSECPSDKDCSPESHKAKNESWIK [K10C] the value was 3.95; for TSECPSDKDVSPESHKAKNESWIK [K10V], 2.75; for TSECPSDKDYSPESHKAKNESWIK [K10Y], 2.94. In the case of TSECPSDKDNSPESHKAKNESWIK [K10N], the protein stability index was found to be 3.73.

In the case of TSECPSDKDTSPESHKAKNESWIK [K10T], the protein stability index was found to be 3.04.

As for TSECPSDKDLSPESHKAKNESWIK [K10L], the protein stability index was 4.2. The same measure for TSECPSDKDISPESHKAKNESWIK [K10I]: 3.25.

For TSECPSDKDDSPESHKAKNESWIK [K10D], the protein stability index stood at 4.02.

On to TSECPSDKDRSPESHKAKNESWIK [K10R], for which the protein stability index turned out to be 2.81. With TSECPSDKDGSPESHKAKNESWIK [K10G], the protein stability index was found to be 2.63. Regarding TSECPSDKDQSPESHKAKNESWIK [K10Q], the protein stability index came to 3.46. For TSECPSDKDMSPESHKAKNESWIK [K10M] the value was 3.63; for TSECPSDKDSSPESHKAKNESWIK [K10S], 3.41; for TSECPSDKDASPESHKAKNESWIK [K10A], 3.64. For TSECPVDKDKSPESHKAKNESWIK [S6V] the value was 3.27; for TSECPTDKDKSPESHKAKNESWIK [S6T], 2.92. The same measure for TSECPWDKDKSPESHKAKNESWIK [S6W]: 2.71; for TSECPRDKDKSPESHKAKNESWIK [S6R]: 2.75; for TSECPQDKDKSPESHKAKNESWIK [S6Q]: 3.75. As to TSECPPDKDKSPESHKAKNESWIK [S6P], the protein stability index is 3.37. The same measure for TSECPYDKDKSPESHKAKNESWIK [S6Y]: 2.82. For the variant TSECPSDKDKSPESSKAKNESWIK [H15S], the protein stability index is 3.61.

The record behind these values is the supplement of paper PMC10567573.
